The values below come from patent US20250277008A1, “Novel Anti-Bacterial Peptides Derived From Differentiating Stem Cells” (AGENCY FOR SCIENCE, TECHNOLOGY AND RESEARCH, priority 2022, published 2025).

≈ marks a conversion by molar mass, not a printed value. Entries after “also recorded” stand apart in the source; their conditions may differ. Like-named read-outs stand apart in the source and are kept apart here. Ends that are not written are not given here.

For test [1], the system named is S. typhimurium (ST). Nature of the test: Anti-bacterial resistance evolution assay (serial passaging). Type of test: cell-based. The note with it: Salmonella enterica, 384 h, read-out: Minimum Inhibitory Concentration (MIC) after serial passaging. As to the method:
To determine the antibacterial effects of the ASC-CM or anti-bacterial peptides, intracellular ATP levels of the bacteria was determined by the ATP Determination Kit. As indicated in the antibacterial assay protocol, after overnight incubation of the ASC-CM or peptides with bacteria for a period of 24 hours, the culture was first spun to eliminate the extracellular ATP and other metabolic waste released from the dead bacteria. The bacterial pellet was resuspended in equivalent amount of water and the levels of intracellular ATP was calculated based on manufacturer's instructions.
The resistance development of S. typhimurium (ST) strain was assessed by sequential passaging in the presence of sub-inhibitory concentrations of gentamicin or ASC-CM. Briefly, sequential passaging of S. typhimurium (ST) cells was done with full-strength, ½-strength, and ¼-strengths of ASC-CM or sub-inhibitory concentrations of gentamicin for a period of 4 weeks. The cells grown in sub-inhibitory strengths of either conditioned media (CM) or gentamicin were diluted to A600 nm (OD600) of 0.1 and serially passaged daily with the same concentrations for 4 weeks at 37° C. with agitation at 24 h intervals.

Another test concerns human keratinocytes. Nature of the test: 2-dimensional scratch assay. Type of test: cell-based. The note with it: compared to media control. As to the method:
Cell confluency of human keratinocytes were assessed in presence of peptides in a 2D scratch assay at each timepoint by applying an ImageJ plugin PHANTAST on phase contrast time lapse images. The rate of change of keratinocytes confluency was calculated by obtaining a best fit line across the confluency vs time plot as described in. The rate of change of confluence was used as a surrogate measure for speed of migrating keratinocytes.

Test [2] relates to 3-day old P. aeruginosa (PA) biofilm. As to the kind of experiment: Estimation of biofilm disruption (crystal violet staining). The test is classed as cell-based, Pseudomonas aeruginosa (ATCC 14213). The method, then: Biofilms were grown in cation adjusted MH2 broth for 72 hours in 96-well clear bottom polystyrene plates. The biofilm inoculum was prepared by subculturing overnight bacterial culture for 90 minutes until OD600 reaches ˜0.3-0.4. 200 μL of biofilm inoculum was aliquoted into each well of the 96-well plate. After 72 hours of static incubation at 37° C., the spent media was expelled, and the biofilms were treated with ASC-CM for 24 hours. […] Briefly, all the contents in the 96-well plates were removed and the wells were washed thrice with 1×PBS (Phosphate Buffer Solution) to remove the non-adherent planktonic bacteria. The attached biofilms were fixed with 95% methanol for 5 minutes. The wells were air-dried and stained with 0.1% crystal violet solution for 15 minutes at room temperature. The crystal violet solution was removed, and the wells were washed with water three times. The plates were again air-dried, and the stained biofilm was solubilized using 30% acetic acid. The absorbance of the biofilms were recorded at OD595 using Micro xMark™ Microplate Absorbance Spectrophotometer.

Test [3] deals with P. aeruginosa (PA). Type of test: cell-based, Pseudomonas aeruginosa (ATCC 14213). As to conditions: for minimum bactericidal concentration (MBC): PA; for minimum bactericidal concentration (MBC) / concentration required to significantly kill: MBC = lowest concentration killing ≥50% colonies vs media control. The method, then:
(§1) Examination of the potency of conditioned media obtained from adipose-derived mesenchymal stem cells (ASC-CM) and recombinant peptides against S. typhimurium, P. aeruginosa and S. aureus strains were performed by using the broth microdilution protocol from the Clinical and Laboratory Standards Institute (CLSI) guidelines (CLSI 2012). Briefly, five freshly plated bacteria colonies were grown in cation adjusted MH2 broth in a shaker incubator at 37° C., 220 RPM. Cells were grown to an optical density (OD600) of 0.20 using a Microplate Spectrophotometer. 100 μL of microbial culture containing ˜5×10^5 CFU/mL of bacteria in the respective broths were introduced into each well containing 100 μL of ASC-CM or peptides and incubated overnight at 37° C. Next, to check the bactericidal effects, 100 μL from each well was transferred and spread on sterile MH2 agar plates. The plates were incubated overnight at 37° C. and the number of colonies forming units (CFU) was observed the next day. Readings of bacteria grown in media without any treatments were normalized to 100% as media control. Minimum bactericidal concentration (MBC) was defined as the lowest peptide concentration (μM) required to kill ≥50% bacterial colonies compared to the media control.

For test [4], the system named is S. typhimurium (ST). As to the kind of experiment: Antibacterial assay (CLSI broth microdilution, CFU counts). The test is classed as cell-based. As to conditions: for minimum bactericidal concentration (MBC) / concentration required to significantly kill: MBC = lowest concentration killing ≥50% colonies vs media control. As to the method: as §1
Another test relates to S. aureus (SA). The test is classed as cell-based. The note with it: for minimum bactericidal concentration (MBC) / concentration required to significantly kill: MBC = lowest concentration killing ≥50% colonies vs media control. As to the method: as §1
The test system of another test is P. aeruginosa 14213. Nature of the test: Murine excisional wound infection model. Type of test: in vivo, mice. The note with it: wounds infected 24 hours, then ENO3 (0.2 nM) or SPARCL1 (0.067 nM) for 24 hours; vs untreated controls. The method, then:
The murine wound infection model was carried as described with minor modifications. […] Statistical analysis was performed by Student's t-test compared to untreated (PBS). All approved procedures were performed in accordance with the 218 Institutional Animal Care and Use Committee (IACUC) in Nanyang Technological 219 University, School of Biological Sciences (ARFSBS/NIEA0198Z) for murine wound infection model.
The biofilm disruption ability of ENO3 and SPARCL1 in a murine excisional wound infection model. Excisional wounds were infected with ˜10^3 CFU of P. aeruginosa 14213 and treated for 24 hours to form the biofilms. […] Post-treatment, the wound region was excised, and the bacterial count were enumerated.

The subject of test [5] is 3-day old S. typhimurium (ST) biofilm. As to the kind of experiment: Estimation of biofilm disruption (crystal violet staining). The test is classed as cell-based, Salmonella typhimurium. The method, then:
Biofilms were grown in cation adjusted MH2 broth for 72 hours in 96-well clear bottom polystyrene plates. The biofilm inoculum was prepared by subculturing overnight bacterial culture for 90 minutes until OD600 reaches ˜0.3-0.4. 200 μL of biofilm inoculum was aliquoted into each well of the 96-well plate. After 72 hours of static incubation at 37° C., the spent media was expelled, and the biofilms were treated with ASC-CM for 24 hours. Post-treatment, the minimum biofilm inhibition concentration (MBIC) showing >50% reduction was determined by quantifying the levels of remaining attached biofilm, by crystal violet staining method. Briefly, all the contents in the 96-well plates were removed and the wells were washed thrice with 1×PBS (Phosphate Buffer Solution) to remove the non-adherent planktonic bacteria. The attached biofilms were fixed with 95% methanol for 5 minutes. The wells were air-dried and stained with 0.1% crystal violet solution for 15 minutes at room temperature. The crystal violet solution was removed, and the wells were washed with water three times. The plates were again air-dried, and the stained biofilm was solubilized using 30% acetic acid. The absorbance of the biofilms were recorded at OD595 using Micro xMark™ Microplate Absorbance Spectrophotometer.

Test [6] relates to P. aeruginosa (PA). Type of test: cell-based, Pseudomonas aeruginosa (ATCC 14213). As to conditions: FIG. 6H.

Consider `CN[C@@H]1[C@@H](O)C(O[C@@H]2[C@@H](O)[C@H](O[C@H]3O[C@H]([C@@H](C)NC)CC[C@H]3N)[C@@H](N)C[C@H]2N)OC[C@]1(C)O` (stereo partly drawn) [Gentamicin, (3R,4R,5R)-2-{[(1S,2S,3R,4S,6R)-4,6-diamino-3-{[(2R,3R,6S)-3-amino-6-[(1R)-1-(methylamino)ethyl]oxan-2-yl]oxy}-2-hydroxycyclohexyl]oxy}-5-methyl-4-(methylamino)oxane-3,5-diol, reference compound], for which the MIC with S. typhimurium (ST) [1] came out at 1020 mg/L (≈ 2140 µM). In the test on human keratinocytes, the “migration of human keratinocytes (rate of change of confluency)” value (shortened to “migration … (rate of change of confluency)”) is listed as “significantly impaired; also recorded: no cell migration is observed”.

Take “HHKAEKSSVLKSKEESH [Peptide S1A, HHKAEKSSVLKSKEESH]”: in test [2] (S1A 0.78 μM-3.125 μM), the biofilm disruption activity entry is “more than 50%”. Moreover, in the test with P. aeruginosa (PA) [3], the “minimum bactericidal concentration (MBC)” value is 100000 nM. The “anti-bacterial activity (bacterial viability)” value (“anti-bacterial activity” below) with P. aeruginosa (PA) [3] (S1A 100 μM) is on record as “more than 50%”.

Regarding “KQRNKVKKIYLDEKR [Peptide S1B, KQRNKVKKIYLDEKR]”, the biofilm disruption activity result in test [2] (S1B 6.25 μM-12.5 μM) is listed as “more than 50%”. The “minimum bactericidal concentration (MBC)” value with P. aeruginosa (PA) [3] amounted to 50000 nM. Further, the “anti-bacterial activity” value with P. aeruginosa (PA) [3] (S1B 50 μM) is reported as “more than 50%”.

Turning to KVNQIGSVTESIQACKLAQSN [Peptide E1A], the biofilm disruption activity entry in [2] (E1A 0.39 μM-1.56 μM) is “more than 50%”. Also, in the test with P. aeruginosa (PA) [3] (E1A 0.39 μM), the “anti-bacterial activity” value is on record as “more than 50%”. Besides, in the test on P. aeruginosa (PA) [3], the “minimum bactericidal concentration (MBC)” value worked out at 390 nM. In addition, the “migration … (rate of change of confluency)” value with human keratinocytes is recorded as “increased migration of human keratinocytes; also recorded: higher migration speed”.

B1: ENO3: recombinant full-length human ENO3 peptide, SEQ ID NO: 1, identified in bacteria-primed ASC conditioned media (protein, listed as Homo sapiens)
chain: MAMQKIFAREILDSRGNPTVEVDLHTAKGRFRAAVPSGASTGIYEALELRDGDKGRYLGKGVLKAVENINNTLGPALLQKKLSVVDQEKVDKFMIELDGTENKSKFGANAILGVSLAVCKAGAAEKGVPLYRHIADLAGNPDLILPVPAFNVINGGSHAGNKLAMQEFMILPVGASSFKEAMRIGAEVYHHLKGVIKAKYGKDATNVGDEGGFAPNILENNEALELLKTAIQAAGYPDKVVIGMDVAASEFYRNGKYDLDFKSPDDPARHITGEKLGELYKSFIKNYPVVSIEDPFDQDDWATWTSFLSGVNIQIVGDDLTVTNPKRIAQAVEKKACNCLLLKVNQIGSVTESIQACKLAQSNGWGVMVSHRSGETEDTFIADLVVGLCTGQIKTGAPCRSERLAKYNQLMRIEEALGDKAIFAGRKFRNPKAK
As for B1, the “bacterial reduction (CFU %)” value with S. typhimurium (ST) [4] (ENO3 2.04 nM) is given as “more than 50%”; with S. aureus (SA) (ENO3 0.102 nM, FIG. 6C), “more than 50%”; with P. aeruginosa (PA) [3] (ENO3 0.204 nM) it was “more than 50%”. Further, the entries for the “minimum bactericidal concentration (MBC) / concentration required to significantly kill” value with S. typhimurium (ST) [4], in the test on S. aureus (SA) and in the test on P. aeruginosa (PA) [3] were 2.04 nM, 0.102 nM and 0.204 nM, respectively. In addition, the MBC in the test on S. aureus (SA) (S. aureus, >99% reduction of viable colonies, FIG. 6G) turned out to be 2000 nM; against P. aeruginosa (PA) [6] (>99% reduction of viable colonies), 6000 nM. The MIC in the test on S. aureus (SA) (S. aureus, spot plate, FIG. 6G) amounted to 2000 nM; with P. aeruginosa (PA) [6] (spot plate) it was 4000 nM. Moreover, the “bacterial colonies (CFU counts) in excised wound” value in the test on P. aeruginosa 14213 is recorded as “reduction of bacterial colonies; also recorded: Reduction in bacterial colonies”. For the same molecule, the biofilm disruption result in [5] (ENO3 about 0.0102 nM) was “more than 50%”; in [2] (ENO3 about 0.0102 nM), about 50%. Moreover, the “migration … (rate of change of confluency)” value with human keratinocytes is recorded as “increased migration of human keratinocytes; also recorded: higher keratinocytes migration rate”.

B2: SPARCL1: recombinant full-length human SPARCL1 peptide, SEQ ID NO: 2, identified in bacteria-primed ASC conditioned media (protein, listed as Homo sapiens)
chain: MKTGLFFLCLLGTAAAIPTNARLLSDHSKPTAETVAPDNTAIPSLRAEAEENEKETAVSTEDDSHHKAEKSSVLKSKEESHEQSAEQGKSSSQELGLKDQEDSDGHLSVNLEYAPTEGTLDIKEDMSEPQEKKLSENTDFLAPGVSSFTDSNQQESITKREENQEQPRNYSHHQLNRSSKHSQGLRDQGNQEQDPNISNGEEEEEKEPGEVGTHNDNQERKTELPREHANSKQEEDNTQSDDILEESDQPTQVSKMQEDEFDQGNQEQEDNSNAEMEEENASNVNKHIQETEWQSQEGKTGLEAISNHKETEEKTVSEALLMEPTDDGNTTPRNHGVDDDGDDDGDDGGTDGPRHSASDDYFIPSQAFLEAERAQSIAYHLKIEEQREKVHENENIGTTEPGEHQEAKKAENSSNEEETSSEGNMRVHAVDSCMSFQCKRGHICKADQQGKPHCVCQDPVTCPPTKPLDQVCGTDNQTYASSCHLFATKCRLEGTKKGHQLQLDYFGACKSIPTCTDFEVIQFPLRMRDWLKNILMQLYEANSEHAGYLNEKQRNKVKKIYLDEKRLLAGDHPIDLLLRDFKKNYHMYVYPVHWQFSELDQHPMDRVLTHSELAPLRASLVPMEHCITRFFEECDPNKDKHITLKEWGHCFGIKEEDIDENLLF
With B2, the figures for the “minimum bactericidal concentration (MBC) / concentration required to significantly kill” value in the test on S. typhimurium (ST) [4], with S. aureus (SA) and in the test with P. aeruginosa (PA) [3] were 0.0067 nM, 1000 nM and 268 nM, respectively. The “bacterial reduction (CFU %)” value was “more than 50%” with S. typhimurium (ST) [4] (SPARCL1 0.0067 nM); “more than 50%” in the test with S. aureus (SA) (SPARCL1 1000 nM, FIG. 6F); “more than 50%” in the test on P. aeruginosa (PA) [3] (SPARCL1 268 nM). Further, the “bacterial colonies (CFU counts) in excised wound” value in the test with P. aeruginosa 14213 is “reduction of bacterial colonies; also recorded: Reduction in bacterial colonies”. For the same molecule, the biofilm disruption in [5] (SPARCL1 about 0.00134 nM) and in test [2] (SPARCL1 about 0.00134 nM) was about 50% throughout. Besides, the “migration … (rate of change of confluency)” value in the test on human keratinocytes was “increased migration of human keratinocytes; also recorded: higher keratinocytes migration rate”.
